The target in assay [1] is T1, cynomolgus monkey C-MET on stably transfected CHO-K1 cells (cynomolgus monkey, UniProt A0M8R7 25-1381 (Papio anubis entry)).
T1 construct: also called cycMET; cyno C-MET+ CHO-K1 cells
The assay can be described thus: flow cytometry, C-MET CHO-K1 cells. The method, then:
(§1) Purified IgGs were tested in FACs for binding to human and cyno C-MET expressed on CHO-K1 stable cell lines and CHO-K1 wild-type cells. The IgG samples were titrated in three-fold serial dilutions starting at 500 nM to 0.08 nM. Binding of IgGs was detected with a mouse anti-human IgG conjugated to FITC. Results were analyzed by examining the Mean Fluorescence Intensity (MFI) of 10000 cells per sample in the BL-1 channel detector of a flow cytometer (Attune™ NxT Acoustic Focusing Cytometer, Invitrogen/ThermoFisher Scientific).
In general terms: Flow cytometry measures light scatter and fluorescence of single cells or particles in a stream.

The target of assay [2] is T2, human C-MET on stably transfected CHO-K1 cells (human, UniProt P08581 25-1390).
T2 construct: also called hucMET; human C-MET+ CHO-K1 cells
The assay can be described thus: flow cytometry, C-MET CHO-K1 cells. How it is done:
as §1

Assay [3] has as its target T3, cynomolgus monkey C-MET His tag, monomeric (cynomolgus monkey, UniProt A0M8R7 25-932 (Papio anubis entry)).
T3 construct: also called monomeric cyno C-MET; cyCMET
Description: SPR Biacore, monomeric cyno against monomeric human C-MET. How it is done: (§2) Affinity (KD) of purified IgGs was determined via SPR with antigen in-solution on a Biacore® 3000 (GE). A mouse anti-human antibody (CH1 specific) was immobilized on a CM5 Sensor Chip to a level of 2000 RU in acetate buffer at pH 4.5 using amine coupling following the Wizard instructions for two channels. One channel was used for background signal correction. The standard running buffer HBS-EP pH 7.4 was used. Regeneration was performed with a single injection of 10 μl of 10 mM Glycine at pH 1.5 at 20 μl/minute. IgG samples were injected for 2 minutes at 50 nM at 30 μl/min followed by and off-rate of 60 seconds. The monomeric antigen (human C-MET His tagged or cynomolgus monkey C-MET His tag) was injected in two fold serial dilutions from 100 nM down to 6 nM, for 2 minutes at 30 μl/min followed by an off-rate of 300 seconds. The obtained sensorgrams were analysed using the Biacore® 3000 evaluation (BIAevaluation) software. The KD was calculated by simultaneous fitting of the association and dissociation phases to a 1:1 Langmuir binding model.

In assay [4] the target is T4, human C-MET His tagged, monomeric (human, UniProt P08581 25-932).
T4 construct: also called monomeric human C-MET; biotinylated human C-MET-His
Description: SPR Biacore, IgG captured, monomeric C-MET-His analyte. How it is done:
as §2
On the technique in general: Surface plasmon resonance follows binding to a sensor surface in real time, without labels.

In assay [5] the target is T3, cynomolgus monkey C-MET His tag, …. The assay is described as above. How it is done:
as §2

Assay [6] deals with T1, cynomolgus monkey C-MET on stably …. Description: flow cytometry, C-MET CHO-K1 cells. The method, then: as §1
(§3) Antibodies to C-MET were analysed for concentration-dependent binding at the cell surface via flow cytometry. CHO-K1 cells were stably transfected with either human or cyno C-MET full-length cDNAs. Anti-C-MET IgGs and an isotype control IgG4(S228P) were then all tested in IgG4(S228P) format, over a concentration range of 500-0.08 nM for binding to human (FIG. 5A) and cyno (FIG. 5B) CHO-K1 cells.
This is another data set of the same source.

Assay [7] deals with T2, human C-MET on stably transfected …. Description: flow cytometry, C-MET CHO-K1 cells. The method, then: as §1, §3
The source holds these as a separate data set.

The target of another assay is T5, Insulin.
T5 construct: Coated surface of the polyreactivity (development risk) ELISA
The assay can be described thus: polyreactivity ELISA on insulin. Also noted: scale not given here. (In general: An ELISA detects its analyte on a solid surface through an enzyme-linked reagent.)

The values that follow come from US20260042850A1 (LOCKBODY THERAPEUTICS, published 2026).

T4 sequence (P08581 25-932): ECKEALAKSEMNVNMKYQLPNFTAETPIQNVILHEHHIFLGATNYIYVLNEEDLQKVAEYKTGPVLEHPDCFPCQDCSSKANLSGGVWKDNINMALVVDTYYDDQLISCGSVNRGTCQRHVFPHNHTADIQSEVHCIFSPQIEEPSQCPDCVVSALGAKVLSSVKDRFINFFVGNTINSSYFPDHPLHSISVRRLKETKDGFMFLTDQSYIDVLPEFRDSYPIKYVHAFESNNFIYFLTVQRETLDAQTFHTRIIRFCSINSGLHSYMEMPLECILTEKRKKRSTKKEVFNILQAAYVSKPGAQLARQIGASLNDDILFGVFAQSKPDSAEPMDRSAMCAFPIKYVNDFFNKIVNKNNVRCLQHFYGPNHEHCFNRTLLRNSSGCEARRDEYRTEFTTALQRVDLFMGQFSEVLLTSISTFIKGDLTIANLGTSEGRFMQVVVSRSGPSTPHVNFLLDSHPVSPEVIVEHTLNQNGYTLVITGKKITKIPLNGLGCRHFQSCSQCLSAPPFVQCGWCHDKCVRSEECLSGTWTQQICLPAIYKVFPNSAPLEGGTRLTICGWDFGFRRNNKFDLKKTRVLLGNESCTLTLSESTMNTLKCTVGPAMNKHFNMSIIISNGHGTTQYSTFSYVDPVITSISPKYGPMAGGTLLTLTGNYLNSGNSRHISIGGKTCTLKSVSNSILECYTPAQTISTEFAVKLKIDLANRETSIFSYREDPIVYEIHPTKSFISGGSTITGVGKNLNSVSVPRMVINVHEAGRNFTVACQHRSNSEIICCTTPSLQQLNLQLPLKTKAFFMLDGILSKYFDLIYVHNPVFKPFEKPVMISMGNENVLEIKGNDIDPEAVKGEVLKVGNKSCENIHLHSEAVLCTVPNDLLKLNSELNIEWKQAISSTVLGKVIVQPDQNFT
T1 sequence (A0M8R7 25-1381 S170N/I621T limits assumed): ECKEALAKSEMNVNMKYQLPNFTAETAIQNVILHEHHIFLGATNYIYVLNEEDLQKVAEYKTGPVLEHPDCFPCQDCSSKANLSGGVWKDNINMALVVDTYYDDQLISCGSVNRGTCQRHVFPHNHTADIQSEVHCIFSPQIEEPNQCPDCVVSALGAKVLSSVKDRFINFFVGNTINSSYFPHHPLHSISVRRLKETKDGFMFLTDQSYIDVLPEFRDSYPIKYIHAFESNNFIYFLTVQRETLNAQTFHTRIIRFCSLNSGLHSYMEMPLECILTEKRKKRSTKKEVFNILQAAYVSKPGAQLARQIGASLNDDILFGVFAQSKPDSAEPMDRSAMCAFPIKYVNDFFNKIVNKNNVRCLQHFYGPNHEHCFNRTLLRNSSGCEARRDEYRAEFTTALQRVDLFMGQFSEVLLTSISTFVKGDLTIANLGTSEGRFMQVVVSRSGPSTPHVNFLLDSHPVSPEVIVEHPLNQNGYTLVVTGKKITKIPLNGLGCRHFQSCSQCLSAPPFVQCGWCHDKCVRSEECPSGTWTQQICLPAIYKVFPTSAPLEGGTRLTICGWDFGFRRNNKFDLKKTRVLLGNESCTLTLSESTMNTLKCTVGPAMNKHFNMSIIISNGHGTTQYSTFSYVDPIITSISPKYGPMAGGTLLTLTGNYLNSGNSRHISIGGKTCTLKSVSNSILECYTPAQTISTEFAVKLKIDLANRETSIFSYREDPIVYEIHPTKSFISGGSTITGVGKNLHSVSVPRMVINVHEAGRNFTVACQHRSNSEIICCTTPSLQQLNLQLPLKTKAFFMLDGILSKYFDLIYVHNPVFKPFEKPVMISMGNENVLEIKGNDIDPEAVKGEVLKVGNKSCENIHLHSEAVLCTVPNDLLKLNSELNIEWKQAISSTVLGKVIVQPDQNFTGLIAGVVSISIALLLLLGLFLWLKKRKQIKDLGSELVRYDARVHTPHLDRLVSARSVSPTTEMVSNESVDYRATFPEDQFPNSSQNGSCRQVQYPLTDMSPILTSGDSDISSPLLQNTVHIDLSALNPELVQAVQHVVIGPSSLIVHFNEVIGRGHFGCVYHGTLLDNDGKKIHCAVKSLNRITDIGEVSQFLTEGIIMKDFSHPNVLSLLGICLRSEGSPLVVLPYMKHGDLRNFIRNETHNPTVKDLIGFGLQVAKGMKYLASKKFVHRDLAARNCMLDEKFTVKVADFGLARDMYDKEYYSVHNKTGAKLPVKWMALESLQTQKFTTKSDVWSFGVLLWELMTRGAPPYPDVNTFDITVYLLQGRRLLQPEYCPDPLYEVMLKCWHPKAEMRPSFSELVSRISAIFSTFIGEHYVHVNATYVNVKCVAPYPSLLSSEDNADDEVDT
T2 sequence (P08581 25-1390 limits assumed): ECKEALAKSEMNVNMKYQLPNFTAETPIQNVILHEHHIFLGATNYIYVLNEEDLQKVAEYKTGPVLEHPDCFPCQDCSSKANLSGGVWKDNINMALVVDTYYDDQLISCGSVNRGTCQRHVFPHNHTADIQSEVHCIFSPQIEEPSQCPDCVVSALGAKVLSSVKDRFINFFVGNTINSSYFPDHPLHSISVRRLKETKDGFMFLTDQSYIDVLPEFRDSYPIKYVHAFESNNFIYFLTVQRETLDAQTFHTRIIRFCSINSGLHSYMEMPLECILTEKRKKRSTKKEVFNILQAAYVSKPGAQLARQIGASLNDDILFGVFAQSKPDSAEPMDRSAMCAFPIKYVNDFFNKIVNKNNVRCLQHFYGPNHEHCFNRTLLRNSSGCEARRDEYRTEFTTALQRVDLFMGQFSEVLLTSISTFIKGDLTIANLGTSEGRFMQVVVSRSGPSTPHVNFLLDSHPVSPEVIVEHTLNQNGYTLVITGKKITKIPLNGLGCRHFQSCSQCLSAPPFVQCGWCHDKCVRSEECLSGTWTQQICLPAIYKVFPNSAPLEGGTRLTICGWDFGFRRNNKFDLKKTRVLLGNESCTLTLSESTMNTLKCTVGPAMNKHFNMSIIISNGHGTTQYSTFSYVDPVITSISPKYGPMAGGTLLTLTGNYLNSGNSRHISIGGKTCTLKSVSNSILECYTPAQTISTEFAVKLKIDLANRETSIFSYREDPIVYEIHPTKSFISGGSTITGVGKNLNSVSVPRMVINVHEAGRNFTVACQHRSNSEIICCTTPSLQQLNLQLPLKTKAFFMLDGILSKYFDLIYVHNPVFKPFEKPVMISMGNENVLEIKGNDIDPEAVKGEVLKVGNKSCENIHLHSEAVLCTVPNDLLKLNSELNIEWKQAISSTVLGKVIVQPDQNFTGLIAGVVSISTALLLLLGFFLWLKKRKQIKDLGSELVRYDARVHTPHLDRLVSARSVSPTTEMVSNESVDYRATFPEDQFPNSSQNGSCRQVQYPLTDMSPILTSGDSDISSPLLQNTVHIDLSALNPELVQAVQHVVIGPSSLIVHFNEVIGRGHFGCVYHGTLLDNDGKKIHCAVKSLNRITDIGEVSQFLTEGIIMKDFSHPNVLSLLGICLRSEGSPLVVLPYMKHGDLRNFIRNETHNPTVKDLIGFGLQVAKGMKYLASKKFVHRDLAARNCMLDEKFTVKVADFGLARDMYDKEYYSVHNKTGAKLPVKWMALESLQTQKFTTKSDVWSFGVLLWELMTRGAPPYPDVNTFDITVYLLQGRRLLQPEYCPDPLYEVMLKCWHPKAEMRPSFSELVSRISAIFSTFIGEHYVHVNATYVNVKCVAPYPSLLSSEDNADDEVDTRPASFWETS
T5 sequence (P01308 25-54, chain 1 of 2): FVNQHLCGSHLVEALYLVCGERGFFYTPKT
T5 sequence (P01308 90-110, chain 2 of 2): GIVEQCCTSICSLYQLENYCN
T3 sequence (A0M8R7 25-932 S170N/I621T): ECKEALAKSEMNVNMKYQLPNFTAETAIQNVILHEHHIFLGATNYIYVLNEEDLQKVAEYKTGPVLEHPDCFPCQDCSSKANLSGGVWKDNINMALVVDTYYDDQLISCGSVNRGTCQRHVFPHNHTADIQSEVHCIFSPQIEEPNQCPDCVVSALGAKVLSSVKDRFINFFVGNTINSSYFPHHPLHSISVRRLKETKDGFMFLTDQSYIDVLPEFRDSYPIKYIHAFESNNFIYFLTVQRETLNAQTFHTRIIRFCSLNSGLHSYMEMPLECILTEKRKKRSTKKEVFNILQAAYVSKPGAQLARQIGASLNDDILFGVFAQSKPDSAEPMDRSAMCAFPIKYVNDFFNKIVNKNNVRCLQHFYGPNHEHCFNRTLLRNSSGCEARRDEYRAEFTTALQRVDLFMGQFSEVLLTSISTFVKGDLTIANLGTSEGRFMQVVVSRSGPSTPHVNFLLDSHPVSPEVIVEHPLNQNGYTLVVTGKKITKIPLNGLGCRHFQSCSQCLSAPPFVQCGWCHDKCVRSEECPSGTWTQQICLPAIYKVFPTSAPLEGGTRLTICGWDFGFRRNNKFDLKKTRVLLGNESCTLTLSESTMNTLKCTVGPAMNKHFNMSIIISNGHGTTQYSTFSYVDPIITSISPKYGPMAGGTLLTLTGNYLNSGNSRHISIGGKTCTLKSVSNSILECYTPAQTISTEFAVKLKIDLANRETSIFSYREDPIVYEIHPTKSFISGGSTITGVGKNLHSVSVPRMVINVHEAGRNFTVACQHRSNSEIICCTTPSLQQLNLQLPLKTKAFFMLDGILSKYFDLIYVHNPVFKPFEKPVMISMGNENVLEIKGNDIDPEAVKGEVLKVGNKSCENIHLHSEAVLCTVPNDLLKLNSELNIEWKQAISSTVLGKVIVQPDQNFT

B1: MH4 (antibody, IgG4, V domains shown)
VH: QVQLVQSGAEVKKPGASVKVSCKASGYTFTSYTMHWVRQAPGQGLEWMGWINPSGGSTSYAQKFQGRVTMTRDTSTSTVYMELSSLRSEDTAVYYCARQEITTEFDYWGQGTLVTVSS
VL: EIVLTQSPGTLSLSPGERATLSCRASQSVSSYANSYLHWYQQKPGQAPRLLIYRGSTRESGIPDRFSGSGSGTDFTLTISRLEPEDFAVYYCQQSKSEPLTFGGGTKVEIK
As a reminder, the EC50 is the concentration that produces a half-maximal response. Usually Kd stands for the concentration at which binding is half-saturated. Broadly, the koff is the rate constant with which the complex falls apart. Usually kon stands for a measure of how fast the partners come together. On to B1, for which the EC50 in assay [1] was found to be 0.48 nM; in assay [2], 1.72 nM. In assay [3], the “cyno C-MET affinity, fold of the human C-MET affinity” value (from here on “cyno C-MET affinity, fold”) is at most 2 fold. The Kd in assay [4] was 0.28 nM; in assay [5], 0.19 nM. The koff was found to be 2.5e-05 s⁻¹ in assay [4] and 4.9e-05 s⁻¹ in assay [5]. The kon stood at 87000 M⁻¹ s⁻¹ in assay [4] and 260000 M⁻¹ s⁻¹ in assay [5]. For the same molecule, the “maximum MFI, fold over Isotype IgG4 background” value (“maximum MFI, fold” below) in assay [6] and in assay [7] was above 10 fold throughout.

B2: MH12 (antibody, IgG4, V domains shown)
VH: QVQLVQSGAEVKKPGASVKVSCKASGYTFTSYAMHWVRQAPGQGLEWMGWINPSGGSTSYAQKFQGRVTMTRDTSTSTVYMELSSLRSEDTAVYYCARQEITTEFDYWGQGTLVTVSS
VL: EIVLTQSPGTLSLSPGERATLSCRASQSVSSYAQSYLHWYQQKPGQAPRLLIYRGSTRETGIPDRFSGSGSGTDFTLTISRLEPEDFAVYYCQQYGSSPLTFGGGTKVEIK
For the molecule B2, the EC50 was 0.51 nM in assay [1] and 1.25 nM in assay [2]. For the same molecule, the results for the Kd in assay [4] and in assay [5] were 6.5 nM and 4 nM, respectively. In addition, the koff was determined as 0.00037 s⁻¹ in assay [4] and 0.00043 s⁻¹ in assay [5]. Further, the kon in assay [4] worked out at 56000 M⁻¹ s⁻¹; in assay [5] it was 110000 M⁻¹ s⁻¹. Further, the “maximum MFI, fold” value in assay [6] and in assay [7] was above 10 fold in each case.

B3: MH7-1 (antibody, human IgG4, V domains shown)
VH: QVQLVQSGAEVKKPGASVKVSCKASGYTFTSYTMHWVRQAPGQGLEWMGIINPSGGSTSYAQKFQGRVTMTRDTSTSTVYMELSSLRSEDTAVYYCARQEITTEFDYWGQGTLVTVSS
VL: EIVLTQSPGTLSLSPGERATLSCRASQSVSSYANSYLHWYQQKPGQAPRLLIYRGSTRETGIPDRFSGSGSGTDFTLTISRLEPEDFAVYYCQQSKSEPLTFGGGTKVEIK
In the case of B3, in assay [4], the Kd worked out at 1.54 nM, the koff was determined as 0.000151 s⁻¹ and the kon stood at 97900 M⁻¹ s⁻¹. In assay [5], this molecule displayed a Kd of 1.1 nM, a koff of 0.000198 s⁻¹ and a kon of 181000 M⁻¹ s⁻¹. In addition, the “maximum MFI, fold” value in assay [6] was above 10 fold. Besides, in assay [7], the “maximum MFI, fold” value was above 10 fold. The reactivity score in the assay with Insulin stood at 1.

B4: MH7 (antibody, human IgG4, V domains shown)
VH: QVQLVQSGAEVKKPGASVKVSCKASGYTFTSYTMHWVRQAPGQGLEWMGIINPSGGSTSYAQKFQGRVTMTRDTSTSTVYMELSSLRSEDTAVYYCARQEITTEFDYWGQGTLVTVSS
VL: EIVLTQSPGTLSLSPGERATLSCRASQSVSSYANSYLHWYQQKPGQAPRLLIYRGSTRESGIPDRFSGSGSGTDFTLTISRLEPEDFAVYYCQQSKSEPLTFGGGTKVEIK
On to B4, for which the results for the EC50 in assay [1] and in assay [2] were 0.54 nM and 1.14 nM, respectively. Also, the “cyno C-MET affinity, fold” value in assay [3] was at most 2 fold. The results for the Kd in assay [4] and in assay [5] were 0.3 nM and 0.19 nM, respectively. Besides, the dissociation rate constant (koff) worked out at 2.9e-05 s⁻¹ in assay [4] and 5.2e-05 s⁻¹ in assay [5]. Further, the kon was found to be 98000 M⁻¹ s⁻¹ in assay [4] and 270000 M⁻¹ s⁻¹ in assay [5]. Moreover, the “maximum MFI, fold” value in assay [6] and in assay [7] was above 10 fold each time. For the same molecule, the reactivity score with Insulin was 1.

B5: 09E04 (antibody, IgG4, V domains shown)
VH: QVQLVQSGAEVKKPGASVKVSCKASGYIFTSYTMHWVRQAPGQGLEWMGWINPNGGSTSYAQKFQGRVTMTRDTSTSTVYMELSSLRSEDTAVYYCARQEITTEFDYWGQGTLVTVSS
VL: EIVLTQSPGTLSLSPGERATLSCRASQSVESYANSYLHWYQQKPGQAPRLLIYRGSTRESGIPDRFSGSGSGTDFTLTISRLEPEDFAVYYCQQYGSEPLTFGGGTKVEIK
For the molecule B5, the values for the EC50 in assay [1] and in assay [2] were 1.11 nM and 2.9 nM, respectively. The “cyno C-MET affinity, fold” value in assay [3] is at most 2 fold. For the same molecule, the Kd in assay [4] was determined as 0.18 nM; in assay [5] it was 0.39 nM. In addition, the koff in assay [4] was determined as 1.6e-05 s⁻¹; in assay [5], 6.4e-05 s⁻¹. Moreover, the values for the association rate constant (kon) in assay [4] and in assay [5] were 85000 M⁻¹ s⁻¹ and 170000 M⁻¹ s⁻¹, respectively. Also, the “maximum MFI, fold” value in assay [6] and in assay [7] was above 10 fold each time.

B6: MH11 (antibody, IgG4, V domains shown)
VH: QVQLVQSGAEVKKPGASVKVSCKASGYTFTSYAMHWVRQAPGQGLEWMGWINPSGGSTSYAQKFQGRVTMTRDTSTSTVYMELSSLRSEDTAVYYCARQEITTEFDYWGQGTLVTVSS
VL: EIVLTQSPGTLSLSPGERATLSCRASQSVSSYAQSYLHWYQQKPGQAPRLLIYRGSTRETGIPDRFSGSGSGTDFTLTISRLEPEDFAVYYCQQSGSSPLTFGGGTKVEIK
As to B6, the results for the EC50 in assay [1] and in assay [2] were 0.69 nM and 1.68 nM, respectively. The values for the dissociation constant (Kd) in assay [4] and in assay [5] were 2.6 nM and 1.2 nM, respectively. Further, the results for the koff in assay [4] and in assay [5] were 0.00016 s⁻¹ and 0.00018 s⁻¹, respectively. Moreover, the kon in assay [4] turned out to be 62000 M⁻¹ s⁻¹; in assay [5] it was 150000 M⁻¹ s⁻¹. Further, the “maximum MFI, fold” value in assay [6] and in assay [7] was above 10 fold in each case.

B7: 04F09 (antibody, IgG4, V domains shown)
VH: QVQLVQSGAEVKKPGASVKVSCKASGYIFTSYSMHWVRQAPGQGLEWMGWINPSNGLANYAQKFQGRVTMTRDTSTSTVYMELSSLRSEDTAVYYCARQEITTEFDIWGQGTLVTVSS
VL: EIVLTQSPGTLSLSPGERATLSCRASQSVESYAQSYLHWYQQKPGQAPRLLIYRGSTRESGIPDRFSGSGSGTDFTLTISRLEPEDFAVYYCQQSKSDPLTFGGGTKVEIK
With B7, the figures for the EC50 in assay [1] and in assay [2] were 0.64 nM and 12.4 nM, respectively. Also, in assay [3], the “cyno C-MET affinity, fold” value was at most 2 fold. The Kd in assay [4] stood at 0.13 nM; in assay [5], 0.19 nM. Besides, the koff in assay [4] stood at 1.8e-05 s⁻¹; in assay [5], 5.6e-05 s⁻¹. The kon in assay [4] worked out at 140000 M⁻¹ s⁻¹; in assay [5] it was 290000 M⁻¹ s⁻¹. Further, the “maximum MFI, fold” value in assay [6] and in assay [7] was above 10 fold each time.

B8: 08G07 (antibody, human IgG4, V domains shown)
VH: QVQLVQSGAEVKKPGASVKVSCKASGYTFTSYTMHWVRQAPGQGLEWMGWINPSGGLANYAQKFQGRVTMTRDTSTSTVYMELSSLRSEDTAVYYCARSEITTDFDYWGQGTLVTVSS
VL: EIVLTQSPGTLSLSPGERATLSCRASQSVDSYANSYLHWYQQKPGQAPRLLIYRGSTRESGIPDRFSGSGSGTDFTLTISRLEPEDFAVYYCQQSKSEPLTFGGGTKVEIK
For the molecule B8, the EC50 was 0.68 nM in assay [1] and 4.19 nM in assay [2]. In assay [3], the “cyno C-MET affinity, fold” value was at most 2 fold. Further, the Kd in assay [4] was 0.12 nM; in assay [5] it was 0.24 nM. Also, the koff in assay [4] is 7.54e-06 s⁻¹; in assay [5], 2.4e-05 s⁻¹. Moreover, the results for the kon in assay [4] and in assay [5] were 63400 M⁻¹ s⁻¹ and 100000 M⁻¹ s⁻¹, respectively. Moreover, the “maximum MFI, fold” value in assay [6] and in assay [7] was above 10 fold in each case. In addition, the reactivity score with Insulin came out at 1.
